The assay concerns the target FliC-aGFP_ENH_V2 (Salmonella) (UniProt P06179). The assay is described as follows: ITC; sfGFP (0.065 mM) injected in 10 μl portions into FliC-aGFP_ENH in the cell; 25 °C; 20 mM Tris-HCl, 150 mM NaCl, pH 8.5; one-binding-site model. For orientation: Isothermal titration calorimetry measures the heat released or taken up as one component is titrated into another.

pKd: −log10 of the molar value.

The source of these data is paper PMC5832153.

UniProt P06179, sequence (P06179 whole entry): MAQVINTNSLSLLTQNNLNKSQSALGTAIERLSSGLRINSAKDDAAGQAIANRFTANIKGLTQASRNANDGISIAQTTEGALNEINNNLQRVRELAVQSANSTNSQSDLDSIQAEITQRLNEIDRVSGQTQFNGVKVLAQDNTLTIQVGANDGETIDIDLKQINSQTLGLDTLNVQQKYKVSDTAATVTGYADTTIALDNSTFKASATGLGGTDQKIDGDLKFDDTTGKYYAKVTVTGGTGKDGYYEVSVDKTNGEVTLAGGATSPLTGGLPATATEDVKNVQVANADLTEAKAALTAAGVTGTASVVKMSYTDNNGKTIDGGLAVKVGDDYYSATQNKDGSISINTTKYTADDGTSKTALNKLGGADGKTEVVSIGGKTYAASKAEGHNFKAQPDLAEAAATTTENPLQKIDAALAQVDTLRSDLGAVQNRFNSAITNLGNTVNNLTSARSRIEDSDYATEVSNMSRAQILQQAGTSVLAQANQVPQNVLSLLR

For the substance “C-terminally His-tagged superfolder GFP (from UniProt P42212 1-238) (natural protein)”, the pKd (as a rule, the Kd on a negative log10 scale, so that one unit is a factor of ten) is 8.96; the dH was -9.3 kcal/mol; the stoichiometry N (in general, a count of units in the complex or per binding partner) turned out to be 0.86.
